# Assay results published in publication PMC12363175.
# Target: BANAL-20-52 S ectodomain with stabilizing mutations
# Experiment: AUC
# peptidase domain (PD) of hACE2, sequence (Q9BYF1 19-615): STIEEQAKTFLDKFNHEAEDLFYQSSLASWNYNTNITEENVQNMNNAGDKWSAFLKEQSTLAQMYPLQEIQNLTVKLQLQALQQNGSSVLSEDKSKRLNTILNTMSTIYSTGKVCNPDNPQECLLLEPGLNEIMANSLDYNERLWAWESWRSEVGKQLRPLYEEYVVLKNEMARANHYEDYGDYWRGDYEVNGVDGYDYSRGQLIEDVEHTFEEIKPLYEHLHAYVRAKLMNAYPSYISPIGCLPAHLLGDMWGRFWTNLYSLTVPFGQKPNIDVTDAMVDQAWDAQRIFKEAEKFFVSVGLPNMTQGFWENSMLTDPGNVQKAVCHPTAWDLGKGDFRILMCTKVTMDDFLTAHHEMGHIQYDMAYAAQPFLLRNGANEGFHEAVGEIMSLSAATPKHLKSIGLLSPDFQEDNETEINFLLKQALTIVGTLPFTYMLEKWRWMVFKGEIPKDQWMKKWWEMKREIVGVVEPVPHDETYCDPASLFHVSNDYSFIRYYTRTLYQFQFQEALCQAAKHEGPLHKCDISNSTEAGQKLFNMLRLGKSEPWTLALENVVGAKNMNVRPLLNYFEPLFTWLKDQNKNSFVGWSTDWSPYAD
substance,measurement,value
peptidase domain (PD) of hACE2 (from UniProt Q9BYF1 19-615) (domain or fragment),stoichiometry N (hACE2 molecules per S trimer),2
